The source of these data is PMC8395052.

In this test the target is T1, human estrogen receptor-alpha (ERα) fused at its N-terminus with NanoLuc luciferase (Nluc-ERα) or HaloTag (HT-ERα) (human), P03372.
T1 chain: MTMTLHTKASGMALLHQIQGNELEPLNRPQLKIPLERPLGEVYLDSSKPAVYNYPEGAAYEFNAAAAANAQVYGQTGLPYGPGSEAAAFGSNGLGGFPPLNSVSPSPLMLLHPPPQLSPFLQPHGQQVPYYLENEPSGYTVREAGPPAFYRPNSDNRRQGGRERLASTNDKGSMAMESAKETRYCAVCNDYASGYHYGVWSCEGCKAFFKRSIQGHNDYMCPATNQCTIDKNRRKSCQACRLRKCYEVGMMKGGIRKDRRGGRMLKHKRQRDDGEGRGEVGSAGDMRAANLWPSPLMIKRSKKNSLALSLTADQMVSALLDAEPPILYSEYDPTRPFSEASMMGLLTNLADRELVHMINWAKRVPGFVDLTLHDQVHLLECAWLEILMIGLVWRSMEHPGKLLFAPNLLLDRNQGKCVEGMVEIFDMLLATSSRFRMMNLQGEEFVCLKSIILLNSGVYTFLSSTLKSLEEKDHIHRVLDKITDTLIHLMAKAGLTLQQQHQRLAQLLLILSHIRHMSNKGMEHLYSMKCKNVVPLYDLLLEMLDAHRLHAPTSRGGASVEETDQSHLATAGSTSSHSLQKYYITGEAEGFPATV
Description: FRET or BRET; NanoBRET in living HEK293 cells co-transfected with Nluc-ERα (donor) and HT-ERα (acceptor), 1:1; HaloTag NanoBRET 618 ligand; cells treated 24 h with E2, 17α-estradiol, diethylhexyl phthalate, bisphenol A or 4-nonylphenol; fold induction of the corrected BRET unit (618 nm/460 nm) over the vehicle control (0.1% DMSO). Conditions: remark: other sources report otherwise. For orientation: BRET reads energy transfer from a luciferase to a nearby fluorophore.

B1: human estrogen receptor-alpha (ERα) fused at its N-terminus with NanoLuc luciferase (Nluc-ERα) or HaloTag (HT-ERα), P03372 1-595 (receptor)
chain: MTMTLHTKASGMALLHQIQGNELEPLNRPQLKIPLERPLGEVYLDSSKPAVYNYPEGAAYEFNAAAAANAQVYGQTGLPYGPGSEAAAFGSNGLGGFPPLNSVSPSPLMLLHPPPQLSPFLQPHGQQVPYYLENEPSGYTVREAGPPAFYRPNSDNRRQGGRERLASTNDKGSMAMESAKETRYCAVCNDYASGYHYGVWSCEGCKAFFKRSIQGHNDYMCPATNQCTIDKNRRKSCQACRLRKCYEVGMMKGGIRKDRRGGRMLKHKRQRDDGEGRGEVGSAGDMRAANLWPSPLMIKRSKKNSLALSLTADQMVSALLDAEPPILYSEYDPTRPFSEASMMGLLTNLADRELVHMINWAKRVPGFVDLTLHDQVHLLECAWLEILMIGLVWRSMEHPGKLLFAPNLLLDRNQGKCVEGMVEIFDMLLATSSRFRMMNLQGEEFVCLKSIILLNSGVYTFLSSTLKSLEEKDHIHRVLDKITDTLIHLMAKAGLTLQQQHQRLAQLLLILSHIRHMSNKGMEHLYSMKCKNVVPLYDLLLEMLDAHRLHAPTSRGGASVEETDQSHLATAGSTSSHSLQKYYITGEAEGFPATV
modifications: here or on the partner: HaloTag NanoBRET 618 ligand on the HaloTag of the acceptor copy; HaloTag NanoBRET 618 ligand on the HaloTag of the acceptor copy
B1 had a fold induction of the BRET signal over vehicle control, with 4-nonylphenol of 2.3 fold; a fold induction of the BRET signal over vehicle control, with 17α-estradiol 10^-8 M of 2.7 fold; a fold induction of the BRET signal over vehicle control, with E2 10^-9 M of 2.7 fold; a fold induction of the BRET signal over vehicle control, with bisphenol A 10^-5 M of 5.7 fold. Further, the fold induction of the BRET signal over vehicle control, with diethylhexyl phthalate was determined as 2.3 fold.
